The values that follow come from US20100280095A1 (RIKEN, published 2010).

In this test the target is T1, endogenous Smad4 of 293T cells (UniProt Q13485 1-552).
T1 sequence (looked up): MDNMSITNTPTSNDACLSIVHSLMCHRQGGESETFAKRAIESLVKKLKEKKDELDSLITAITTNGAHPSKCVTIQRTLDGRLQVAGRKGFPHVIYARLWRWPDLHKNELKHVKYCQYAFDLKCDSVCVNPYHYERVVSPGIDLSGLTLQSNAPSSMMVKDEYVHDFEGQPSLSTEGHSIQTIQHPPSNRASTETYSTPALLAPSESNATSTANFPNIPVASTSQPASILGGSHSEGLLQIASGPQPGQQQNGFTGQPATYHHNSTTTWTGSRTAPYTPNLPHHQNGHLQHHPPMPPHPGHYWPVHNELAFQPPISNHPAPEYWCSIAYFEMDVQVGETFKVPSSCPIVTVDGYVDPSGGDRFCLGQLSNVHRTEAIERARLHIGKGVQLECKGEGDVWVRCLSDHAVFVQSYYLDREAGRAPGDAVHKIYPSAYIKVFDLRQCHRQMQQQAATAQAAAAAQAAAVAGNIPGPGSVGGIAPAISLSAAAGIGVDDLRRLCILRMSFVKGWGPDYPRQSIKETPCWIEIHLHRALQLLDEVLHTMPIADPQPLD
Description: co-immunoprecipitation: anti-c-Myc IP of 293T whole cell extract, immunoblot with anti-Smad4. The text has this: (a) An interaction between c-Myc-tagged PDLIM2 and an endogenous Smad transcription factors; 293T cells were transfected with or without a c-Myc-tagged PDLIM2 expression plasmid (c-Myc PDLIM2) and treated to obtain whole cell extracts, which were immunoprecipitated (IP) with anti-c-Myc antibody, and immunoblotted (IB) with anti-Smad2, 3 or 4 antibody. (b) Luciferase activity in mouse embryonic fibroblasts; with or without a plasmid that encodes PDLIM2, the cells were transfected with a plasmid that encodes a TARE luciferase reporter (pTARE-Luc), after which the cells were stimulated with human TGFβ (10 ng/ml) for 6 hours and assayed.
All lysis buffers used for immunoblot analysis contained a proteinase inhibitor cocktail (Roche). Cytoplasmic and nuclear extracts were prepared as follows. Cells were lysed on ice for 10 min with hypotonic buffer (20 mM HEPES pH 8.0, 10 mM KCl, 1 mM MgCl₂, 0.1% Triton X-100, 20% glycerol). After centrifugation (5,000 rpm, 1 min), supernatants were collected and used as cytoplasmic fractions. The pellets were next lysed on ice for 20 min after brief vortexing with hypertonic buffer (20 mM HEPES pH 8.0, 1 mM EDTA, 20% glycerol, 0.1% Triton X-100, 400 mM NaCl). After centrifugation (15,000 rpm, 5 min), supernatants were collected and used as nuclear fractions. […]
In general terms: Immunoblotting shows a protein as a band on a membrane.

B1: c-Myc-tagged PDLIM2 (murine Pdlim2 coding region in pCMV-Myc) (enzyme)
chain: MALTVDVAGPAPWGFRISGGRDFHTPIIVTKVTERGKAEAADLRPGDIIVAINGQSAENMLHAEAQSKIRQSASPLRLQLDRSQTASPGQTNGEGSLEVLATRFQGSLRTHRDSQSSQRSACFSPVSLSPRPCSPFSTPPPTSPVALSKEDMIGCSFQSLTHSPGLAAAHHLTYPGHPTSQQAGHSSPSDSAVRVLLHSPGRPSSPRFSSLDLEEDSEVFKMLQENRQGRAAPRQSSSFRLLQEALEAEERGGTPAFVPSSLSSQASLPTSRALATPPKLHTCEKCSVNISNQAVRIQEGRYRHPGCYTCADCGLNLKMRGHFWVGNELYCEKHARQRYSMPGTLNSRA
notes: Expressed in 293T cells and tested in whole cell extracts; also called c-Myc PDLIM2; PDZ and LIM domain protein-2; not shown: c-Myc tag from vector pCMV-Myc (Clontech)
B1: the binding result was “no binding”.
